Results on 14 molecules are retold here after patent US20240024520A1, “AUTONOMOUS KNOB DOMAIN PEPTIDES” (UCB BIOPHARMA SRL, priority 2020, published 2024).

First the molecules themselves.
B1: hC3Nb1Loop2ΔP (protein)
VHH: QVQLVETGGGLVQAGGSLRLSCAASGSIFSLNAMGWFRQASGGGSGCPPGYKSGVDCSPGSECKWGCYAVDGRRYGGYGADSGVSGGGSKEREFVATINRSGGRTYYADSVKGRFTISRDNGKNMVYLQMHSLKPEDTAIYYCAAGTGWSPQTDNEYNYWGQGTQVTVSS
modifications: left off: a dimerising Fc or GST
B2: hC3Nb1 Loop 3 (protein)
VHH: QVQLVETGGGLVQAGGSLRLSCAASGSIFSLNAMGWFRQAPGKEREFVATINRSGGRTYYADSVKGSGGGSGCPPGYKSGVDCSPGSECKWGCYAVDGRRYGGYGADSGVSGGGSRFTISRDNGKNMVYLQMHSLKPEDTAIYYCAAGTGWSPQTDNEYNYWGQGTQVTVSS
modifications: left off: a dimerising Fc or GST
B3: hC3Nb1 C-Term (protein)
VHH: QVQLVETGGGLVQAGGSLRLSCAASGSIFSLNAMGWFRQAPGKEREFVATINRSGGRTYYADSVKGRFTISRDNGKNMVYLQMHSLKPEDTAIYYCAAGTGWSPQTDNEYNYWGQGTQVTVSSGGGSGCPPGYKSGVDCSPGSECKWGCYAVDGRRYGGYGADSGV
modifications: left off: a dimerising Fc or GST
B4: hC3Nb1 Loop 2 (protein)
VHH: QVQLVETGGGLVQAGGSLRLSCAASGSIFSLNAMGWFRQAPSGGGSGCPPGYKSGVDCSPGSECKWGCYAVDGRRYGGYGADSGVSGGGSKEREFVATINRSGGRTYYADSVKGRFTISRDNGKNMVYLQMHSLKPEDTAIYYCAAGTGWSPQTDNEYNYWGQGTQVTVSS
modifications: left off: a dimerising Fc or GST
B5: hC3Nb1 N-Term (protein)
VHH: TTVHQRTIKSGCPPGYKSGVDCSPGSECKWGCYAVDGRRYGGYGADSGVGSTYTHEFYVDAWGQGSSSSGSSSSGQVQLVETGGGLVQAGGSLRLSCAASGSIFSLNAMGWFRQAPGKEREFVATINRSGGRTYYADSVKGRFTISRDNGKNMVYLQMHSLKPEDTAIYYCAAGTGWSPQTDNEYNYWGQGTQVTVSS
modifications: left off: a dimerising Fc or GST
B6: hC3nb1: camelid VHH which binds C3 and C3b, PDB code 6EHG (protein)
VHH: QVQLVETGGGLVQAGGSLRLSCAASGSIFSLNAMGWFRQAPGKEREFVATINRSGGRTYYADSVKGRFTISRDNGKNMVYLQMHSLKPEDTAIYYCAAGTGWSPQTDNEYNYWGQGTQVTVSS
modifications: left off: a dimerising Fc or GST
B7: hC3nb1-K92: hC3nb1 with K92 ultralong CDR-H3 inserted between H74 and H75, displayed on M13 phage (protein)
VHH: QVQLVETGGGLVQAGGSLRLSCAASGSIFSLNAMGWFRQAPGKEREFVATINRSGGRTYYADSVKGRFTISRDNGSIVHQKAHTSVTCPEGWSECGVAIYGYECGRWGCGHFLNSGPNISPYVSTHKYEWYVDAKNMVYLQMHSLKPEDTAIYYCAAGTGWSPQTDNEYNYWGQGTQVTVSS
modifications: left off: large carriers
B8: hC3nb1-K149: hC3nb1 with K149 ultralong CDR-H3 inserted between H74 and H75, displayed on M13 phage (protein)
VHH: QVQLVETGGGLVQAGGSLRLSCAASGSIFSLNAMGWFRQAPGKEREFVATINRSGGRTYYADSVKGRFTISRDNGTSVLQSTKPQKSCPDGFSYRSWDDFCCPMVGRCLAPRNTYTTEFTIEAKNMVYLQMHSLKPEDTAIYYCAAGTGWSPQTDNEYNYWGQGTQVTVSS
modifications: left off: large carriers
B9: hC3nb1-K8: hC3nb1 with K8 ultralong CDR-H3 inserted between H74 and H75, displayed on M13 phage (protein)
VHH: QVQLVETGGGLVQAGGSLRLSCAASGSIFSLNAMGWFRQAPGKEREFVATINRSGGRTYYADSVKGRFTISRDNGTVQQKTHQVCPDGFNWGYGCAAGSSRFCTRHDWCCYDERADSHTYGFCTGNRVTNTYEFHADAKNMVYLQMHSLKPEDTAIYYCAAGTGWSPQTDNEYNYWGQGTQVTVSS
modifications: left off: large carriers
B10: hC3nb1-K57: hC3nb1 with K57 ultralong CDR-H3 inserted between H74 and H75, displayed on M13 phage (protein)
VHH: QVQLVETGGGLVQAGGSLRLSCAASGSIFSLNAMGWFRQAPGKEREFVATINRSGGRTYYADSVKGRFTISRDNGTTVHQRTIKSGCPPGYKSGVDCSPGSECKWGCYAVDGRRYGGYGADSGVGSTYTHEFYVDAKNMVYLQMHSLKPEDTAIYYCAAGTGWSPQTDNEYNYWGQGTQVTVSS
modifications: left off: large carriers
B11: 542 (protein)
CDR: TTVVQRTHKTTSCPDGYHFIEPCHSGLCWREGACNGDGICANGLGRCRTVSETSTYEFYVN
modifications: Anti-C5 ultralong CDR-H3
B12: 568 (protein)
CDR: TTVVQRTRKIVTCPDGYSYSEGCGKGDDCGGVHCCANGGVTCWYRHCCSTGTDTYSYEWYVD
modifications: Anti-C5 ultralong CDR-H3
B13: 563 (protein)
CDR: TTVHQQTKKQKSCPDGWGHSDDCNCACSANAYACCKRDWLLPGPSCECSTYCVSHTYQWYV
modifications: Anti-C5 ultralong CDR-H3
B14: 564 (protein)
CDR: TTVHQHTRKSGSCPDGWSDCHGSCDGVGCTGSDCVRYNARGYGRHACSGYAYTYSYEFYVN
modifications: Anti-C5 ultralong CDR-H3

Sequence of C3 protein (P01024 23-1663): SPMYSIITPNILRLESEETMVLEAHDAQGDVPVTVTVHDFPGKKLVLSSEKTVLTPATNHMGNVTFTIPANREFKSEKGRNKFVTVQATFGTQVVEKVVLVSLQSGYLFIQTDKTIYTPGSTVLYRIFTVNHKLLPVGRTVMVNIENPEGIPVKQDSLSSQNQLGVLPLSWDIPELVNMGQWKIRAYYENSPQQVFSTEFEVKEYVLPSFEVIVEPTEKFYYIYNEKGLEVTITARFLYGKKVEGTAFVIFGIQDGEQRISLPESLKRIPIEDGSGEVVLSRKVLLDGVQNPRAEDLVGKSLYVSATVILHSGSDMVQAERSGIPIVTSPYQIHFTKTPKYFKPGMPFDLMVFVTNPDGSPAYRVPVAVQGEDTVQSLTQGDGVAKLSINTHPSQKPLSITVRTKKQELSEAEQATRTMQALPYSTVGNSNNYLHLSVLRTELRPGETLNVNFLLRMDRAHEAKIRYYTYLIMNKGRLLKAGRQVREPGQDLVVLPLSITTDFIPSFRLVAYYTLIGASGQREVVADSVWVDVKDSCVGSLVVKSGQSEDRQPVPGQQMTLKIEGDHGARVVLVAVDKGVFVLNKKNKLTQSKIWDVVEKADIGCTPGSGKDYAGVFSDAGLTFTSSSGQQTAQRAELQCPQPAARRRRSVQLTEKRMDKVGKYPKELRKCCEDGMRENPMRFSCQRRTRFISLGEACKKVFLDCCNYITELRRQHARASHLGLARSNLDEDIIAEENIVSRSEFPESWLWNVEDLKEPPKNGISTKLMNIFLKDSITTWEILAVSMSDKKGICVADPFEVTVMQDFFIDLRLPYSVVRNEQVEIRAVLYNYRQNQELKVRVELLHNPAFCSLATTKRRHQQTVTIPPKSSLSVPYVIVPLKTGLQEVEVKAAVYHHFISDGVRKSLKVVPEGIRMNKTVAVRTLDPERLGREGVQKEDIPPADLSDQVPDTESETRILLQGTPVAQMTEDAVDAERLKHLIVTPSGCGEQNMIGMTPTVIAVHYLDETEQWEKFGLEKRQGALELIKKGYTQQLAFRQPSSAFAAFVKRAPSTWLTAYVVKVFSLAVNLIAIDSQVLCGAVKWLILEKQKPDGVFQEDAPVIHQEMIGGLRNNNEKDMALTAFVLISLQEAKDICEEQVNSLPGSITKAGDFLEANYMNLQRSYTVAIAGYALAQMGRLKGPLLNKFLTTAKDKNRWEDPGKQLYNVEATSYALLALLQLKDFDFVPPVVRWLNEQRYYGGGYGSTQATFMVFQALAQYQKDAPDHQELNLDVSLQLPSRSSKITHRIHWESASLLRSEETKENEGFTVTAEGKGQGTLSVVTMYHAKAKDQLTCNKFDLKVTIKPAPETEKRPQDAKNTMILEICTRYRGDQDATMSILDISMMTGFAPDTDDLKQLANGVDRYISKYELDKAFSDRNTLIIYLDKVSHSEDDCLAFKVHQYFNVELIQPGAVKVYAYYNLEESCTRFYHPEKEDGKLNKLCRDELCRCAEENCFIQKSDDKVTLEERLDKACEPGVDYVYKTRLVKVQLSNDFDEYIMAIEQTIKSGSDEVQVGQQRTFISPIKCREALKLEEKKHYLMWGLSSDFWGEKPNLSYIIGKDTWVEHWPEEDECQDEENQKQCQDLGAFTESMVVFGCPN

In one assay the target is T1, C5 (Homo sapiens, UniProt P01031). The assay is described as follows: Biacore (SPR) single-cycle kinetics on immobilised C5. The format is binding. Conditions: C5 binding, Biacore, n = 3 independent experiments. As to the method: Binding to C5 was measured using surface plasmon resonance (SPR) single-cycle kinetics as described below.
T1 sequence (P01031 19-1676): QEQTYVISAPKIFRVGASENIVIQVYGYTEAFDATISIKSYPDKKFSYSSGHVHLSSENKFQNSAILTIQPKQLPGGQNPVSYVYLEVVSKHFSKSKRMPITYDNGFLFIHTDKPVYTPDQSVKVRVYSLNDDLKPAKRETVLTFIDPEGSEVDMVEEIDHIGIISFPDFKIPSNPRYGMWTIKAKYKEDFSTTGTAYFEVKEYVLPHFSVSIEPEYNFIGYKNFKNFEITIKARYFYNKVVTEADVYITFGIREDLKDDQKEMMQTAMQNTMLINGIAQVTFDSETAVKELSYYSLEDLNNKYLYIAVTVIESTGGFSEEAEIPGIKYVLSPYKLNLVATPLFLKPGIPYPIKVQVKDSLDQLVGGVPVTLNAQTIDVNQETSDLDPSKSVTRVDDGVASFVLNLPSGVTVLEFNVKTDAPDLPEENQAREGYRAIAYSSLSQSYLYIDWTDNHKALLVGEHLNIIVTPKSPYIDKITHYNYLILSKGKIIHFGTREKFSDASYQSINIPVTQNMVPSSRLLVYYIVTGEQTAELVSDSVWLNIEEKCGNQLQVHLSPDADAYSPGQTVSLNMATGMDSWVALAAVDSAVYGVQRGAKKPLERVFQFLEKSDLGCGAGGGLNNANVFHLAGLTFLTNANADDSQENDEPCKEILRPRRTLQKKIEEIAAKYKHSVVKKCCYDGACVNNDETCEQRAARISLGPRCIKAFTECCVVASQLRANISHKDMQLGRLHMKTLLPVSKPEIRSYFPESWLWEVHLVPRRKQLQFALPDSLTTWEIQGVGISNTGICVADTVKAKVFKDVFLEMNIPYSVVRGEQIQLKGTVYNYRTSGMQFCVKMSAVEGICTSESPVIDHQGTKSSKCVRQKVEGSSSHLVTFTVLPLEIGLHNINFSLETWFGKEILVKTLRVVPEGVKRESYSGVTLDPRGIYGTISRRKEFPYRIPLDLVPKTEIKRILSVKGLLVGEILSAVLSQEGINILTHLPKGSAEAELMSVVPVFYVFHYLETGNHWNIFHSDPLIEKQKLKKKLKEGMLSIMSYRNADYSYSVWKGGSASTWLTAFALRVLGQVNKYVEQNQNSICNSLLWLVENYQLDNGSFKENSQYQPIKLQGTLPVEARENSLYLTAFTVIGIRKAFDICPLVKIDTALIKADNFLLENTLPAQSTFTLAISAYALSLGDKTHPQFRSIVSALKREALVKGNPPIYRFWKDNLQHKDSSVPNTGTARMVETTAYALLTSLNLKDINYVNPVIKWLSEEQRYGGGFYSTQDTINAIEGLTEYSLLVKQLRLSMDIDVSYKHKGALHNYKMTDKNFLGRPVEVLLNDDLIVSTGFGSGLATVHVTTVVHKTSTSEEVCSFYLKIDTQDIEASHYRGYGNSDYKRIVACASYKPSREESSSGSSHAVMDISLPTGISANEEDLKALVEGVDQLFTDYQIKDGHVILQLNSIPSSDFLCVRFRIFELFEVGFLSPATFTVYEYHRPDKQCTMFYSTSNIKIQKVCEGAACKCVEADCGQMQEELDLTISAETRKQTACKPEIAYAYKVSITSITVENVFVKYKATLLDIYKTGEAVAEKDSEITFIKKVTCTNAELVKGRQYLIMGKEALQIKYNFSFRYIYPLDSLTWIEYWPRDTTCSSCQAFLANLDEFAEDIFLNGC
Biacore single-cycle kinetics. Using a Biacore 8K (GE Healthcare), C5 was immobilized on a CM5 chip by amine coupling. Flow cells were activated using EDC/NHS (flow rate, 10 μL/min; contact time, 30 s). C5, at 1 μg/mL in pH 4.5 Sodium-acetate buffer, was immobilized on flow cell two only (flow rate, 10 μL/min; contact time, 420 s). Finally, ethanolamine was applied to both flow cells (flow rate, 10 μL/min; contact time, 420 s). A final immobilization level of approximately 2,000 response units was obtained.
Single-cycle kinetics were measured using titrations in HBS-EP buffer. A high flow rate of 40 μL/min was used, with a contact time of 230 s and a dissociation time of 900 s. Binding to the reference surface was subtracted, and the data were fitted to a single-site binding model using Biacore evaluation software.
We measured individual rate constants (kon and koff) and equilibrium dissociation constants (KD) for knob domain peptides binding to C5 by the Biacore single-cycle kinetics method described above.
We used SPR single cycle kinetics to measure binding to human C5 protein.
(Surface plasmon resonance follows binding to a sensor surface in real time, without labels.)
In the case of B1, the “Mean Kon” value worked out at 1.76E+05.

In the case of B2, the “Mean Kon” value amounted to 2.37E+05.

B3: the “Mean Kon” value amounted to 4.52E+05.

For B4, the “Mean Kon” value is on record as 2.85E+05.

B5: the “Mean Kon” value is listed as 6.18E+05.

Still in this assay, the particulars now being: C5 binding, Biacore, n = 3 independent experiments; in 1/s.
As for B1, the “Mean Koff” value is on record as 1.48E−04.

Take B2: the “Mean Koff” value was 1.37E−04.

Turning to B3, the “Mean Koff” value was found to be 1.19E−04.

Consider B4, for which the “Mean Koff” value was found to be 9.09E−05.

For the molecule B5, the “Mean Koff” value is 1.18E−04.

For a further assay, the target named is T1, C5.
Test: not given
Conditions: C5 coated directly and biotinylated C5 captured on streptavidin; OD 630 nm.
On to B6, for which the “binding to human C5 (phage ELISA)” value is reported as “No cross-reactivity to C5 protein was observed”.

Turning to B7, the “binding to human C5 (phage ELISA)” value is reported as “displayed binding to human C5”.

For the molecule B8, the “binding to human C5 (phage ELISA)” value is “did not bind”.

In the case of B9, the “binding to human C5 (phage ELISA)” value is on record as “displayed binding to human C5”.

Turning to B10, the “binding to human C5 (phage ELISA)” value is listed as “displayed binding to human C5”.

The target in another assay is human complement component C3 (Homo sapiens, UniProt P01024). Briefly: SPR binding / counter screen on complement component C3. The conditions noted are these: Biacore, n = 3 independent experiments. The source says: The PGT121-knob domain fusion proteins were counter screened for binding to human complement component C3. C3 is the closest human homologue to C5, sharing a conserved fold and a sequence homology of 26.5%.
Sequence of human complement component C3 (P01024 23-1663): as the sequence (P01024 23-1663) above
We measured binding to C3 and C5 by SPR multi-cycle kinetics and we report full binding kinetics and equilibrium dissociation constants (KD) for binding to both proteins.
As a reminder, the Kd is a measure of binding affinity in units of concentration. Lower therefore signals a tighter complex. Consider B1, for which binding was put at a Kd of 1.51 nM and the “Mean Kon” value is 7.32E+05.

The assay is the same for the next values; noted with them: Biacore, n = 3 independent experiments, in 1/s.
Turning to B1, the “Mean Koff” value worked out at 2.01E−04.

Another assay has as its target C3 protein (Homo sapiens, UniProt P01024).
Test: not given
Conditions: C3 coated directly and biotinylated C3 captured on streptavidin; OD 630 nm.
With B6, the “binding to human C3 (phage ELISA)” value is “binding to human C3”.

Consider B8, for which the “binding to human C3 (phage ELISA)” value is on record as “did not bind”.

The target in the next assay is T1, C5. The assay is described as follows: Monoclonal phage screening ELISA, human C5. The format is binding. Conditions: anti-C5 ultralong CDR-H3; binder = OD>0.2 AU. As to the method: For the C5 libraries, a single round of enrichment was performed with either human or rat C5 protein. […] Phage were blocked for 30 minutes. Biotinylated antigen was added to the blocked phage at a concentration of 100 nM and incubated at room temperature with mixing.
Colonies were picked into a 96-well culture plate containing selective medium 2TY supplemented with 1% Glucose and 100 μg/ml Carbenicillin and was incubated at 37° C. until wells reached mid-log phase of growth prior to addition of M13K07 helper phage. The block was incubated without shaking for 1 hour to achieve infection and phage production using continued culture in selective media supplemented with 50 μg/ml Kanamycin and 100 μg/ml Carbenicillin.
Binding to antigen was assessed by monoclonal phage ELISA, 96-well flat bottom Nunc MaxiSorp plates (Thermofisher) were coated with a 2.5 μg/ml solution of human, mouse, or rat serum albumin, human C5 or mouse C5 diluted with PBS, and left overnight at 4° C. Negative control plate and Anti-myc tag plate were also prepared.
Monoclonal phage rescue supernatants were blocked with an equal volume of a 2% milk (w/v) in PBS, for serum albumin proteins, or 2% BSA and 2% milk (w/v) in PBS solution. The coating solution was removed from coated Nunc plates and each plate was blocked with 1% BSA in PBS (for C5 libraries) or 1% milk powder (for albumin library). Both phage and Nunc plates were blocked for 1 hour at room temperature. Nunc plates were washed using a 96-well microplate washer (BioTek) with a PBS solution contain 0.1% Tween20 (Sigma Aldrich). 100 of blocked phage solution was added to each well of Nunc MaxiSorp plate and left shaking at room temperature for 1 hour. Plates were washed and dried as previously described. 100 of an Anti-M13-Horse radish peroxidase conjugated antibody (GE Healthcare) diluted (1:5,000) in a 1% BSA or milk solution was added to each well and left shaking at room temperature for 1 hour. Plates were washed again and 50 μL of TMB solution (Merck Millipore) was added to each well. Plates were left shaking for 10 minutes. Absorbance was measured at 630 nm and 490 nm. Binding signals were obtained where Absorbance at 630 nm was >3-times the signal upon irrelevant antigen.
By monoclonal phage ELISA the following ultralong CDR-H3 sequences were identified as binders (OD>0.2 AU): […]
(In general: In an ELISA, binding on a coated surface is turned into a signal by an enzyme label.)
For B11, the Specificity entry was “Human”.

Regarding B12, the Specificity result is reported as “Human”.

Turning to B13, the Specificity result was “Human”.

With B14, the Specificity entry is “Human”.
